US20210190798A1, “METHODS OF QUANTIFYING LIF AND USES THEREOF” (MEDIMMUNE LIMITED, priority 2018, published 2021)

Target: LIF (Homo sapiens, UniProt P15018)
Assay: Competitive binding assays against LIF (capture antibody screening)
Method: The capture antibody A4 (set forth in SEQ ID NOs: 41 and 42) was determined by screening potential antibodies using competitive binding assays against LIF.

Sequence of LIF (P15018 23-202): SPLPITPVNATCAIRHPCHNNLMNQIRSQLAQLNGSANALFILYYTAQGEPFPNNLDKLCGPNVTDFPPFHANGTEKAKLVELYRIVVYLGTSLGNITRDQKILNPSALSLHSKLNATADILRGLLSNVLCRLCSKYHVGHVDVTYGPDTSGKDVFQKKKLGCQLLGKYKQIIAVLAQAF

B1: A4: rabbit monoclonal anti-LIF capture antibody, variable regions SEQ ID NOs: 41 and 42 (antibody, V domains shown)
VH: EQLEESVGDLVKPGASLTLTCTASGFSFSGLYYMCWVRQAPGKGLEWIACIWTGSTDSTYYATWAKGRFTISKTSSTTVTLQMTSLTVADTATYFCARGGGVPGDGYALWGPGTLVTVSS
VL: GTELVMTQTPASVSEPVGGTVTINCQASEDISSNLVWYQQKSGQPPKLLIYDASMLASGVPSRFKGSGSGTQFTLTISDLECADGATYYCQSYYVASSSYFVNGFGGGTEVV
  binding to LIF: high binding
  interference with binding by therapeutic antibody h5D8 or M017C3: did not interfere
